# Measurements reported in patent publication US20230038638A1, “COMPLEMENT FACTOR I-RELATED COMPOSITIONS AND METHODS” (published 2023).
# Where two headings read alike, the source gives them in different places.
# T1: C4b (human, UniProt P0C0L4)
# T1 sequence: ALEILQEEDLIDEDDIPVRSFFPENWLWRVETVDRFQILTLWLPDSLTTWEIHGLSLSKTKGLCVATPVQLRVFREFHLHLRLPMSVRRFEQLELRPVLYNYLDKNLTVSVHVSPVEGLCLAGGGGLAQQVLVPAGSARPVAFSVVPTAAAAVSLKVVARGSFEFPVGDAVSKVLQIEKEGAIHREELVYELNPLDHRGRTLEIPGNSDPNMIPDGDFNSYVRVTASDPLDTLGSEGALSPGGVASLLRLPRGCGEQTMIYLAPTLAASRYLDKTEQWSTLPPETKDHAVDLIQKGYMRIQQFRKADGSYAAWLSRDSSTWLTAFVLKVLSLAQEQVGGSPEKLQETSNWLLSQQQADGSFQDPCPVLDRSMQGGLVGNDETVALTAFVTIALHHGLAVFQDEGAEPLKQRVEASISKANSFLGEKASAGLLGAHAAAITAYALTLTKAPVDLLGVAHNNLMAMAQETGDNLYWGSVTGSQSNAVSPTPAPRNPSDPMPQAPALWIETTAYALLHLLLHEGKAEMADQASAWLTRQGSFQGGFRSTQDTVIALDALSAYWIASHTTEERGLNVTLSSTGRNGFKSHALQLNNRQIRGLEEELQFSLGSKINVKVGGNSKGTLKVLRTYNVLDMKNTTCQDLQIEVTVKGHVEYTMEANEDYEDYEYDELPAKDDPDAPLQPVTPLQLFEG
# T2: human C4b (human) (UniProt P0C0L5)
# T2 sequence: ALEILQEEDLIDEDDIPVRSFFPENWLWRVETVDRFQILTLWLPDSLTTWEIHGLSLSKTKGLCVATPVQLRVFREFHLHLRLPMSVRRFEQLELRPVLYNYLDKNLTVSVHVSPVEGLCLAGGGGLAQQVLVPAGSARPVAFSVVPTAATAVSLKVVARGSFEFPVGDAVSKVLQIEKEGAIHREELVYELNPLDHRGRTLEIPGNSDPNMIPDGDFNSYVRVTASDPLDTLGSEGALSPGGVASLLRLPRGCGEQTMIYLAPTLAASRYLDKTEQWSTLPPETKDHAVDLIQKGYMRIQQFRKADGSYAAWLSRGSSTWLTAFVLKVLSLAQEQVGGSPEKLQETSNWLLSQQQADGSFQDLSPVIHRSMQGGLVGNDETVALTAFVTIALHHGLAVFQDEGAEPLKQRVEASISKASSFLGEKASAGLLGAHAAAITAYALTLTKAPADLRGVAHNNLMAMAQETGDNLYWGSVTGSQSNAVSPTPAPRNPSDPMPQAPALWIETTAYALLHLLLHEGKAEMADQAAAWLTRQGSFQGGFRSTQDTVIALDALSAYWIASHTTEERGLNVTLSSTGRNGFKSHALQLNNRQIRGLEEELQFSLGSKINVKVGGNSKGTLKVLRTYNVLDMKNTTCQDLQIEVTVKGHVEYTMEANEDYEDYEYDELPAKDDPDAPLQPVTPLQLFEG
# Assays:
# C4b [1] = target: T1, C4b
# C3b [2] = target: T3, C3b (human, UniProt P01024)
# C3b [3] = target: T3, C3b; remark: listed apart in the source
# C3b [4] = target: T3, C3b; remark: listed apart in the source
# C3b [5] = target: T3, C3b; remark: listed apart in the source
# C3b [6] = target: T3, C3b; remark: listed apart in the source
# human C4b (human) = target: T2, human C4b (human)
# [7] = target: soluble human C3b (human) (UniProt P01024)
# C3b [8] = target: T3, C3b; remark: listed apart in the source
# C4b [9] = target: T1, C4b; remark: listed apart in the source
# [10] = target: soluble human C3b (human) (UniProt P01024); remark: listed apart in the source
# [11] = target: CFI-HSA (human serum albumin fused to the N-terminal end of wild type CFI) (human)
# C3b [12] = target: T3, C3b; experiment: cell-based or functional assay
# C4b [13] = target: T1, C4b; experiment: cell-based or functional assay
# Sequence of CFI-HSA (human serum albumin fused to the N-terminal end of wild type CFI) (enzyme) (chain): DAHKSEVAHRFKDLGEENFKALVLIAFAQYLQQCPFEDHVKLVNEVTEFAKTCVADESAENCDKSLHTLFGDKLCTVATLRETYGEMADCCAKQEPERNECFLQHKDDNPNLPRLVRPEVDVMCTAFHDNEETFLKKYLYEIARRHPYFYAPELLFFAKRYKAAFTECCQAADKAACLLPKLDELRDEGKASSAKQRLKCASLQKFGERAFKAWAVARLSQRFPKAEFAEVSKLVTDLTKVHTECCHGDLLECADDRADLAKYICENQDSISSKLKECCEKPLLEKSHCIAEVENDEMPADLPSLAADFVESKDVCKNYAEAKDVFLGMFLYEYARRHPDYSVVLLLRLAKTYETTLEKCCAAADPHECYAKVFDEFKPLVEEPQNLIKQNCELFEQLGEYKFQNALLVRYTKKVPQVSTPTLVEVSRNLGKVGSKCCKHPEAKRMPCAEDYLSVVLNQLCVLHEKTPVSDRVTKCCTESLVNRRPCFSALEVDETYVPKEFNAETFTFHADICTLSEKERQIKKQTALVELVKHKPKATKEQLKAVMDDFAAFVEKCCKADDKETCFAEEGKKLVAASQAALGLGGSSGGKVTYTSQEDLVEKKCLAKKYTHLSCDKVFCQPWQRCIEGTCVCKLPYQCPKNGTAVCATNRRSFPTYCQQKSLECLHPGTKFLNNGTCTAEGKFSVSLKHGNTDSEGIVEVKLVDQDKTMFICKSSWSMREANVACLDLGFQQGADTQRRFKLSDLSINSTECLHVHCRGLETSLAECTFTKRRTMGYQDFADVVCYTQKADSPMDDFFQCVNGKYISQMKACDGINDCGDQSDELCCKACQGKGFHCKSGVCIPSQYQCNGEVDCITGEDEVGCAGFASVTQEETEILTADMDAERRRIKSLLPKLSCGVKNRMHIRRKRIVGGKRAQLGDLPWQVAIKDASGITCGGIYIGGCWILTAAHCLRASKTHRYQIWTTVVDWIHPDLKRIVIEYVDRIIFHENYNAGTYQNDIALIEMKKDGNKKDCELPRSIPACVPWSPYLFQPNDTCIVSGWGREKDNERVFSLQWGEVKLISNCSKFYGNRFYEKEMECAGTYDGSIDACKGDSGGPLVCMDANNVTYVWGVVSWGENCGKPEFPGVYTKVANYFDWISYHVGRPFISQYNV
# Sequence of recombinant human furin (P09958 108-715 limits assumed): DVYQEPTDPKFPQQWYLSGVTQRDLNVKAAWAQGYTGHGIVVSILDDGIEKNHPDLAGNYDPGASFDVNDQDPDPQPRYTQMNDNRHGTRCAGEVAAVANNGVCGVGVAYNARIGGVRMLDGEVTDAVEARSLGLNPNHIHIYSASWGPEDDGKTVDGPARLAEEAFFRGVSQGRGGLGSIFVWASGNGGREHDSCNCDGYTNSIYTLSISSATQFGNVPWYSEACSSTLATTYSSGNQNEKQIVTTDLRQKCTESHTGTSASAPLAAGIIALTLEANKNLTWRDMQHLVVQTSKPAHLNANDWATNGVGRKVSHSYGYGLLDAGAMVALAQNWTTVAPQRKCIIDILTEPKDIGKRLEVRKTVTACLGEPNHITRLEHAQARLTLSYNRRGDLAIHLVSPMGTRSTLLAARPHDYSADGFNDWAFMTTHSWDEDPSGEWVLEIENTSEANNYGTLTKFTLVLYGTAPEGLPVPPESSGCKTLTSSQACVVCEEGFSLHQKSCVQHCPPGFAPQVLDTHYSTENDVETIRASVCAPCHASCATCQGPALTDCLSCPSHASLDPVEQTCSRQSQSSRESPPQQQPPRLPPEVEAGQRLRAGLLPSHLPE
# Sequence of CFI-HSA (human serum albumin fused to the N-terminal end of wild type CFI) (chain): as the sequence (chain) above
molecule,measurement,setting,value
HSA + CfI + GGSSGG (SEQ ID NO: 6) + CR1(ccp15-17) (enzyme),"C4c No Cofactor EC50 (C4b cleavage, C4c ELISA)",C4b [1],63.5 nM
same,"C3c No Cofactor EC50 (C3b cleavage, iC3b ELISA)",C3b [2],33.7 nM
CFI-HSA variant N531G + P535A (enzyme),"C3dg formation in activated human serum (TRIFMA), EC50 WT/EC50Variant",C3b [3],26.2
same,"C3b cleavage rate, kmut/kwt",C3b [4],3
same,"C3b cleavage, % Activity",C3b [5],120%
same,"C3dg formation (TRIFMA), EC50 against wild type (FIG. 10)",C3b [6],18 fold
CFI-HSA (human serum albumin fused to the N-terminal end of wild type CFI) (enzyme),C4b cleavage EC50,human C4b (human),365 nM
same,C3b cleavage EC50,[7],25.5 nM
CFI-HSA variant E457G + CR1(CCP1-3) (from UniProt P17927) (enzyme),"AP IC50, alternative pathway hemolysis",C3b [8],86 nM
same,"CP IC50, classical pathway hemolysis of sensitised sheep red cells",C4b [9],122 nM
CFI-HSA (human serum albumin fused to the N-terminal end of wild type CFI),C3b-enriched AP hemolytic assay IC50,[10],26.4 nM
recombinant human furin (from UniProt P09958) (enzyme),activation (cleavage) of CFI-HSA by furin,[11],> 90%
"Plasma derived, wild type human CFI (enzyme) KVTYTSQEDLVEKKCLAKKYTHLSCDKVFCQPWQRCIEGTCVCKLPYQCPKNGTAVCATNRRSFPTYCQQKSLECLHPGTKFLNNGTCTAEGKFSVSLKHGNTDSEGIVEVKLVDQDKTMFICKSSWSMREANVACLDLGFQQGADTQRRFKLSDLSINSTECLHVHCRGLETSLAECTFTKRRTMGYQDFADVVCYTQKADSPMDDFFQCVNGKYISQMKACDGINDCGDQSDELCCKACQGKGFHCKSGVCIPSQYQCNGEVDCITGEDEVGCAGFASVTQEETEILTADMDAERRRIKSLLPKLSCGVKNRMHIRRKRIVGGKRAQLGDLPWQVAIKDASGITCGGIYIGGCWILTAAHCLRASKTHRYQIWTTVVDWIHPDLKRIVIEYVDRIIFHENYNAGTYQNDIALIEMKKDGNKKDCELPRSIPACVPWSPYLFQPNDTCIVSGWGREKDNERVFSLQWGEVKLISNCSKFYGNRFYEKEMECAGTYDGSIDACKGDSGGPLVCMDANNVTYVWGVVSWGENCGKPEFPGVYTKVANYFDWISYHVGRPFISQYNV","AP IC50, alternative pathway hemolysis",C3b [12],6.05 nM
same,"CP IC50, classical pathway hemolysis of sensitised sheep red cells",C4b [13],135 nM
same,C4b cleavage EC50,human C4b (human),385 nM
same,C3b cleavage EC50,[7],25.3 nM
same,C3b-enriched AP hemolytic assay IC50,[10],12.9 nM
